In patent US20260273049A1 (ALLIGATOR BIOSCIENCE, published 2026):

What was measured:
[1] = biological target: human CD40 expressed on cells (CD40 reporter cells, HEK Blue CD40L cells, B cells, Raji cells) (human, UniProt P25942 21-277); assay: cell-based or functional assay
[2] = biological target: T1, human CEACAM6 (hCEACAM-6, #3934-CM-050, R&D Systems) (human, UniProt P40199 35-320); assay: ELISA; antigen coated at 0.5 µg/mL, bsAb titrated, anti-human kappa-HRP, luminescence [5/7) Multi44]
T1 construct: Bought protein
T1 sequence (looked up): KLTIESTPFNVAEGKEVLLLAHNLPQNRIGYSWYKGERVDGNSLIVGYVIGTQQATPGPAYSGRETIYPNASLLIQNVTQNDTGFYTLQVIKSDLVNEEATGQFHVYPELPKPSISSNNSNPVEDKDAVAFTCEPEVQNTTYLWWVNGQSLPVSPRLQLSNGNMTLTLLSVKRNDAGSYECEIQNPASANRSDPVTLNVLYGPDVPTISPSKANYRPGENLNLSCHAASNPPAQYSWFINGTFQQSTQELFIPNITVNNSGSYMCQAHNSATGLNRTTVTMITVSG
Description: (§1) 96-well plates were coated with 0.5 μg/mL antigen, hCEACAM-1 (2244-CM-050, R&D Systems), hCEACAM-5 (4128-CM-050, R&D Systems), hCEACAM-6 (3934-CM-050, R&D Systems) or CEACAM-8 (9639-CM-050, R&D Systems) in PBS over night at 4° C. After washing in PBS/0.05% Tween 20 (PBST), the plates were blocked with PBST, 2% BSA for at least 30 minutes at room temperature before a second round of washing. RUBY bsAbs, diluted in PBST, 0.5% BSA, were then added and allowed to bind for at least 1 hour at room temperature. […] Finally, a final round of washing was performed and bound complexes detected using SuperSignal Pico Luminescent as substrate and luminescence signals were measured using Fluostar Optima.

[3] = biological target: T2, human CEACAM1 (hCEACAM-1, #2244-CM-050, R&D Systems) (human, UniProt P13688 35-428); assay: as above
T2 construct: Bought protein
T2 sequence (looked up): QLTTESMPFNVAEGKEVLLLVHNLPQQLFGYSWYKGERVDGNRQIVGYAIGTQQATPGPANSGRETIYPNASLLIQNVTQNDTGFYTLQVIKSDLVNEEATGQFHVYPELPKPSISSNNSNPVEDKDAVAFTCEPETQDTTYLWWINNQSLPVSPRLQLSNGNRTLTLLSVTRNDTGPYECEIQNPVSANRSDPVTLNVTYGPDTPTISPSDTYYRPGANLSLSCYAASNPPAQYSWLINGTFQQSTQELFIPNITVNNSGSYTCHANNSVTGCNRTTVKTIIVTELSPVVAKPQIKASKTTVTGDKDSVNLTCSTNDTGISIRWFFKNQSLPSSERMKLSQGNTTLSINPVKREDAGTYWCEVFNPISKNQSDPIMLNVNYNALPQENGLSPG
Description: as §1

[4] = biological target: T3, human CEACAM1 expressed on CHO cells (human, UniProt P13688 35-526); assay: flow cytometry on CEACAM1-transfected CHO cells, fluorochrome-conjugated anti-human IgG [1/2) B]
T3 construct: whole, on cells; also called CHO-CEACAM1; CEACAM1 on cells
T3 sequence (looked up): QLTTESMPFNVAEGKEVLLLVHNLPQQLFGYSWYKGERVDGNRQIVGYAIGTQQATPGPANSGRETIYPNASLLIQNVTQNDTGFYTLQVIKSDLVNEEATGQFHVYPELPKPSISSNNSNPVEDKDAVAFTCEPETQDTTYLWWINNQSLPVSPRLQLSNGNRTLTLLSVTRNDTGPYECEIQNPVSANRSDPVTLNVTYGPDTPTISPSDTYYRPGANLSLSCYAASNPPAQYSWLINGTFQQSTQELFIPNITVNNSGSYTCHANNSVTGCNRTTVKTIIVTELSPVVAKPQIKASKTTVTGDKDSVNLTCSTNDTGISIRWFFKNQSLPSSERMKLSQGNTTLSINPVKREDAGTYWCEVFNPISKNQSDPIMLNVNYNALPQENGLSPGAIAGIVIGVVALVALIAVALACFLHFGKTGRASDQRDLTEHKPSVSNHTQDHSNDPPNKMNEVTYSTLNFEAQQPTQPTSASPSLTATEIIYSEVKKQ
Source text: The human CEACAM5 and CEACAM1 genes were cloned into pcDNA3.1, and the vector was subsequently stably transfected into CHO cells. […] Binding of the antibodies was detected using fluorochrome-conjugated anti-human IgG and analyzed using flow cytometry.

Chain of human CD40 expressed on cells (CD40 reporter cells, HEK Blue CD40L cells, B cells, Raji cells) (P25942 21-277): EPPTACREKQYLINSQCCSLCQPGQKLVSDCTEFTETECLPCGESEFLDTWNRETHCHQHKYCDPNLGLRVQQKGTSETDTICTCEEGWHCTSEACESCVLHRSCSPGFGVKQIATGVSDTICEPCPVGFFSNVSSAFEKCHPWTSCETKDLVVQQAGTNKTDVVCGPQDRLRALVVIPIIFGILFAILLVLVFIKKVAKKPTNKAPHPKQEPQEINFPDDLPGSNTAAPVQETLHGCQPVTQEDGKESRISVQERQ

B1: Multi44 (bispecific antibody)
heavy 1: not shown
light: DIQMTQSPSSLSASVGDRVTITCRASQSISSYLNWYQEKPGKAPKLLIYAASSLQSGVPSRFSGSGSGTDFTLTISSLQPEDFATYYCQQWGYLLTFGQGTKLEIKRTVAAPSVFIFPPSDEQLKSGTASVVCYLNNFYPREAKVQWKVDNALQSGNSQESVTEQDSKDSTYSLWSTLTLSKADYEKHKVYACEVTHQGLSSPVTKSFNRGEC
heavy 2: EVQLLESGGGLVQPGGSLRLSCAASGFTFSTYGMHWVREAPGKGLEWLSYISGGSSYIFYADSVKGRFTISRDNSKNTLYLQMNSLRAEDTAVYYCARILRGGSGMDLWGQGTLVTVSSASTKGPSVFPLAPSSKSTSGGTAALGCLVKDYFPEPVTVSWNSGALTSGVHTFPAVLQSSGLYSLTSVVEVPSSSLGTQTYICNVNHKPSNTKVDKKVEPKSC
notes: Optimized RUBY format; copies: 2 + 2 + 2
EC50 (nM), HEK Blue CD40L SEAP reporter, CHO-CEACAM5 crosslinking, 0 Raji sink cells/well [1]: 0.02 nM | EC50 (nM), HEK Blue CD40L SEAP reporter, CHO-CEACAM5 crosslinking, 10 000 Raji sink cells/well [1]: 0.05 nM | EC50 (nM), HEK Blue CD40L SEAP reporter, CHO-CEACAM5 crosslinking, 30 000 Raji sink cells/well [1]: 0.08 nM | EC50 (nM), HEK Blue CD40L SEAP reporter, CHO-CEACAM5 crosslinking, 90 000 Raji sink cells/well [1]: 0.16 nM | binding result [2]: no binding (tested: 100 nM) | binding result [3]: no binding (tested: 100 nM) | binding result [4]: no binding (tested: 400 nM)
